According to publication PMC11618653:

Experiments:
[1] = target: cysteine desulfurase NFS1 (subunit of the (NIA)2 subcomplex) (human)
[2] = target: iron-sulfur scaffold protein ISCU2, iron-loaded (human) (UniProt Q9H1K1)
[3] = target: cysteine desulfurase NFS1 (subunit of the (NIA)2 subcomplex) (human); remark: listed apart in the source

UniProt Q9H1K1, sequence (Q9H1K1 35-167): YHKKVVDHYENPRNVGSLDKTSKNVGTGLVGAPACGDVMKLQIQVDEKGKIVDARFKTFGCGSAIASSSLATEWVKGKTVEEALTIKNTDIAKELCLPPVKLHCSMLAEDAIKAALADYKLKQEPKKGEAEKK

| Substance | initial rate of [2Fe-2S] cluster synthesis (CD) at 5 µM FDX2 variant, against wild-type FDX2 [1] [fold higher] | also measured |
| --- | --- | --- |
| FDX2 truncation variant lacking 5 C-terminal residues (ΔC5) (from UniProt Q6P4F2 53-181) (domain or fragment) | < 4 | – |
| FDX2 truncation variant lacking 10 C-terminal residues (ΔC10) (from UniProt Q6P4F2 53-176) (domain or fragment) | < 4 | – |
| FDX2-CL variant (cluster-binding loop residues 109EASL112 replaced with GGSC) (from UniProt Q6P4F2 66-183) (natural protein) | – | initial rates of [2Fe-2S] cluster synthesis (CD) against the concentration of the FDX2 variant, maximum at 1.5 µM, against wild-type FDX2 [2]: 2 fold slower |
| FDX2-DA variant (Asp137-Asp138 exchanged to Ala) (from UniProt Q6P4F2 66-183) (natural protein) | – | initial rate of [2Fe-2S] cluster synthesis on ISCU2 (CD), dithionite-reduced ferredoxin, against dithionite-reduced wild-type FDX2 [3]: 4 fold slower |
